According to US20110143428A1 (Genentech, published 2011):

What was measured:
[1] = biological target: T1, biotinylated human VEGF-C (human, UniProt P49767 112-227, limits assumed, biotin conjugated (site not stated)); test: receptor blocking ELISA: fixed biotin-VEGF-C incubated 2 h with serial dilutions of IgG, unbound VEGF-C captured on immobilized VEGFR3-Fc, streptavidin-HRP, OD450; blocked interaction VEGF-C/VEGFR3. The value stands in brackets after the curve's name in the legend box; the quantity is not named on the sheet, the value agrees with the midpoint of the curve
T1 construct: Panning used the matured form from R&D Systems; also called biotin conjugated VEGF-C; biotinylated VEGF-C
T1 sequence: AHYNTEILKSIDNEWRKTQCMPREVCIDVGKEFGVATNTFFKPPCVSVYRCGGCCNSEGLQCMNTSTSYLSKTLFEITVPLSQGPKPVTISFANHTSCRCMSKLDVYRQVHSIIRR

hVEGF-C [2] = biological target: T2, hVEGF-C (human, UniProt P49767); test: SPR, BIAcore-3000, 25 C: human IgG captured on CM5 chip (about 500 RU), human VEGF-C injected at 12.5-500 nM, 1:1 Langmuir fit
T2 construct: unlabelled; also called human VEGF-C
T2 sequence (VEGF-C, looked up): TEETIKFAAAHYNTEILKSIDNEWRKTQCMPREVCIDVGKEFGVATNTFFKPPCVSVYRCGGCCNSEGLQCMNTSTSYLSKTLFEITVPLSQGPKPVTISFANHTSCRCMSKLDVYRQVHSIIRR

hVEGF-C [3] = biological target: T2, hVEGF-C; test: phage competition ELISA: phage-displayed clone incubated with increasing soluble hVEGF-C, unbound phage captured on hVEGF-C coated plate, anti-M13-HRP, OD450
hVEGF-C [4] = biological target: T2, hVEGF-C; test: as above; remark: listed apart in the source
VEGF-C C137S [5] = biological target: T3, VEGF-C C137S; test: SPR, Biacore (IgG1): human IgG captured on CM5 chip, VEGF-C injected, 1:1 Langmuir fit
T3 construct: also called hVEGF-C C137S; human VEGF-C C137S
T3 VEGF-C: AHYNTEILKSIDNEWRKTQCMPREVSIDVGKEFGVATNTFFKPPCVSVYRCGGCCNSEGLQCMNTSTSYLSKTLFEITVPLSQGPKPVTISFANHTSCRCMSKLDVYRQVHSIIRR

[6] = biological target: T4, mature VEGF-C (R&D Systems) (human, UniProt P49767 103-227); test: as above
T4 construct: Bought from R&D Systems; also called human VEGF-C matured form (R&D systems)
T4 sequence: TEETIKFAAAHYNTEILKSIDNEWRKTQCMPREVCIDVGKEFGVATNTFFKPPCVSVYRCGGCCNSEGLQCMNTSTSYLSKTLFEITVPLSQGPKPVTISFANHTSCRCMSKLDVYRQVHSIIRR

VEGF-C C137S [7] = biological target: T3, VEGF-C C137S; test: phage competition ELISA as in paragraph 556 with human VEGF-C C137S as antigen: phage-displayed clone VC4.5, soluble antigen varied, anti-M13-HRP, OD450
hVEGF-C [8] = biological target: T2, hVEGF-C; test: phage competition ELISA: phage-displayed clone VC4.5 incubated with increasing soluble hVEGF-C, unbound phage captured on hVEGF-C coated plate, anti-M13-HRP, OD450
VEGF-C C137S [9] = biological target: T3, VEGF-C C137S; test: competition ELISA: three-fold serial dilutions of VC4.5 IgG incubated 2 h on hVEGF-C C137S coated plate (5 ug/ml), then VC4.5 phage for 15 min, anti-M13-HRP, OD450 in %; competitor: VC4.5 phage
[10] = biological target: T4, mature VEGF-C (R&D Systems); test: SPR, Biacore (Fab), VC4.5 Fab protein; set-up for the Fab not described (paragraph 557 describes captured IgG)
hVEGF-C [11] = biological target: T2, hVEGF-C; test: phage competition ELISA: phage-displayed clone incubated with increasing soluble hVEGF-C, unbound phage captured on hVEGF-C coated plate, anti-M13-HRP, OD450; remark: listed apart in the source

B1: anti-VEGF-C antibody mVC4.5 (mIgG2a) (antibody, V domains shown)
VH: EVQLVESGGGLVQPGGSLRLSCAASGFTFTDNWIHWVRQAPGKGLEWVAVISPYSGATYYADSVKGRFTISADTSKNTAYLQMNSLRAEDTAVYYCARDADYKYAFWAFDYWGQGTLVTVSS
VL: DIQMTQSPSSLSASVGDRVTITCRASQDVSTAVAWYQQKPGKAPKLLIYSASFLYSGVPSRFSGSGSGTDFTLTISSLQPEDFATYYCQQSYTTPPTFGQGTKVEIKR
notes: VC4.5 variable domains on a murine IgG2a backbone; also called VC4.5 murine IgG2a form; murine backbone anti-VEGF-C antibody
[1]
  IC50: 0.74 nM

B2: anti-VEGF-C IgG VC4 (antibody, V domains shown)
VH: EVQLVESGGGLVQPGGSLRLSCAASGFTFTDNWIHWVRQAPGKGLEWVGVISPYSGATYYADSVKGRFTISADTSKNTAYLQMNSLRAEDTAVYYCARDADYDYAGWAFDYWGQGTLVTVSS
VL: DIQMTQSPSSLSASVGDRVTITCRASQDVSTAVAWYQQKPGKAPKLLIYSASFLYSGVPSRFSGSGSGTDFTLTISSLQPEDFATYYCQQSYTTPPTFGQGTKVEIK
notes: Only the six HVRs are tied to this clone; also called clone VC4
hVEGF-C [2]
  Kd: 0.97 nM
  koff: 0.000263 s⁻¹
  kon: 271000 M⁻¹ s⁻¹
hVEGF-C [3]
  IC50: 32 nM
hVEGF-C [4]
  IC50: 32 nM

B3: anti-VEGF-C antibody hVC4.5 (hIgG1) (antibody, V domains shown)
VH: EVQLVESGGGLVQPGGSLRLSCAASGFTFTDNWIHWVRQAPGKGLEWVAVISPYSGATYYADSVKGRFTISADTSKNTAYLQMNSLRAEDTAVYYCARDADYKYAFWAFDYWGQGTLVTVSS
VL: DIQMTQSPSSLSASVGDRVTITCRASQDVSTAVAWYQQKPGKAPKLLIYSASFLYSGVPSRFSGSGSGTDFTLTISSLQPEDFATYYCQQSYTTPPTFGQGTKVEIKR
notes: Tested as human IgG1; also called VC4.5 human IgG1 form; human backbone anti-VEGF-C antibody
VEGF-C C137S [5]
  Kd: 1.1 nM
[6]
  Kd: 140 nM
VEGF-C C137S [7]
  IC50: 5.4 nM
hVEGF-C [8]
  IC50: 1.7 nM
VEGF-C C137S [9]
  IC50 (read off the curve): ~7 nM
[1]
  IC50: 0.54 nM

B4: VC4.5Fab (Fab, V domains shown)
VH: EVQLVESGGGLVQPGGSLRLSCAASGFTFTDNWIHWVRQAPGKGLEWVAVISPYSGATYYADSVKGRFTISADTSKNTAYLQMNSLRAEDTAVYYCARDADYKYAFWAFDYWGQGTLVTVSS
VL: DIQMTQSPSSLSASVGDRVTITCRASQDVSTAVAWYQQKPGKAPKLLIYSASFLYSGVPSRFSGSGSGTDFTLTISSLQPEDFATYYCQQSYTTPPTFGQGTKVEIKR
[10]
  Kd: 27.5 nM

B5: VC4.4 (antibody, V domains shown)
VH: EVQLVESGGGLVQPGGSLRLSCAASGFTFTDNWIHWVRQAPGKGLEWVGVISPYSGATYYADSVKGRFTISADTSKNTAYLQMNSLRAEDTAVYYCARDVDYYYAWWALDYWGQGTLVTVSS
VL: DIQMTQSPSSLSASVGDRVTITCRASQDVSTAVAWYQQKPGKAPKLLIYSASFLYSGVPSRFSGSGSGTDFTLTISSLQPEDFATYYCQQSYTTPPTFGQGTKVEIK
notes: also called clone VC4.4
hVEGF-C [4]
  IC50: 2.17 nM

B6: VC4.3 (antibody, V domains shown)
VH: EVQLVESGGGLVQPGGSLRLSCAASGFTFTYSWIHWVRQAPGKGLEWVGFISPGVGYSYYADSVKGRFTISADTSKNTAYLQMNSLRAEDTAVYYCARDADYDYAGWAFDYWGQGTLVTVSS
VL: DIQMTQSPSSLSASVGDRVTITCRASQDVSTAVAWYQQKPGKAPKLLIYSASFLYSGVPSRFSGSGSGTDFTLTISSLQPEDFATYYCQQTYRIPYTFGQGTKVEIK
notes: also called clone VC4.3
hVEGF-C [4]
  IC50: 2.72 nM

B7: anti-VEGF-C IgG VC3 (antibody, V domains shown)
VH: EVQLVESGGGLVQPGGSLRLSCAASGFTFTNTDIHWVRQAPGKGLEWVAWISPSSGYTDYADSVKGRFTISADTSKNTAYLQMNSLRAEDTAVYYCARWRDYRFGGVMDYWGQGTLVTVSS
VL: DIQMTQSPSSLSASVGDRVTITCRASQDVSTAVAWYQQKPGKAPKLLIYSASFLYSGVPSRFSGSGSGTDFTLTISSLQPEDFATYYCQQSYTTPPTFGQGTKVEIK
notes: Only the six HVRs are tied to this clone; also called clone VC3
hVEGF-C [2]
  Kd: 0.92 nM
  koff: 0.000541 s⁻¹
  kon: 588000 M⁻¹ s⁻¹
hVEGF-C [3]
  IC50: 300 nM

B8: anti-VEGF-C IgG VC1 (antibody, V domains shown)
VH: EVQLVESGGGLVQPGGSLRLSCAASGFTFSDSDIHWVRQAPGKGLEWVAWISPYSGYTDYADSVKGRFTISADTSKNTAYLQMNSLRAEDTAVYYCARLFEVIFDYWGQGTLVTVSS
VL: DIQMTQSPSSLSASVGDRVTITCRASQDVSTAVAWYQQKPGKAPKLLIYSASFLYSGVPSRFSGSGSGTDFTLTISSLQPEDFATYYCQQSYTTPPTFGQGTKVEIK
notes: Only the six HVRs are tied to this clone; also called clone VC1
hVEGF-C [2]
  Kd: 0.17 nM
  koff: 0.000189 s⁻¹
  kon: 1.07e+06 M⁻¹ s⁻¹
hVEGF-C [3]
  IC50: 38 nM
hVEGF-C [11]
  IC50: 21.5 nM
